Measurements from patent US20020082384A1, “Process for folding chemically synthesized polypeptides” (priority 2000, published 2002).

How the values were obtained:
human lymphocytes = experiment: Binding of 125I-labelled chemokine to human lymphocytes; conditions: binding of 125I-labelled chemokine to human lymphocytes (FIG. 6)
Experimental: FIG. 6 is a graph of the comparison between the biological activity of recombinant I-309 and the synthetic, folded I-309 of the present invention. Biological activity was asses-sed by binding the chemokine, labelled with ^125I, to human lymphocytes.
Folding of the chemokine derivative purified byRP-HPLC was carried out by dissolving 65 mg of product in 60 ml of 0.6 M GuHCl, 10 mM NaHPO4 and 1 mM Tris at pH 8.0 and adding cysteine at a concentration of 100 fold molar excess with respect to the peptide. The polypeptide solution was left at 37° C. for 4 days. Complete cysteine pairing was checked by mass spectrometry after reaction with N-ethyhnaleimide (NEM). The yield of final folded chemokine was almost 25%.

neutrophils = experiment: Migration across a polycarbonate filter in response to TARC (Imai method), neutrophils; format: cell-based, human
Experimental: (§1) The biological activity of hu-TARC obtained by the methodology of the present invention was performed according to the Imai method (T. Imai et al., J. Biol. Chem., 271, 21514, 1996).
(§2) Human T cell lines, Hut78, Hut 102, and Jurkat, as well as fresh monocytes, neutrophils and lymphocytes were assessed for their migration across a polycarbonate filter in response to TARC.

fresh monocytes = experiment: Migration across a polycarbonate filter in response to TARC (Imai method), monocytes; format: cell-based, human
Experimental: as §1, §2

| biological activity compared with recombinant I-309 (human lymphocytes) | Molecule | chemotactic response (neutrophils) | chemotactic response (fresh monocytes) |
| --- | --- | --- | --- |
| equivalent to recombinant protein | synthetic, folded, hu-I-309: human chemokine I-309, chemically synthesized with 6 S-t-Bu protected cysteines and folded with cysteine (peptide, UniProt P22362 24-96, looked up) C-C motif chemokine 1: KSMQVPFSRCCFSFAEQEIPLRAILCYRNTSSICSNEGLIFKLKRGKEACALDTVGWVQRHRKMLRHCPSKRK | – | – |
| – | synthetic TARC: 71-residue human thymus and activation regulated chemokine, chemically synthesized as Cys10,11,34,50(S-t-Bu) derivative and folded with cysteine (peptide, UniProt Q92583 24-94, looked up) C-C motif chemokine 17: ARGTNVGRECCLEYFKGAIPLRKLKTWYQTSEDCSRDAIVFVTVQGRAICSDPNNKRVKNAVKYLQSLERS | No chemotactic response | No chemotactic response |
| – | recombinant TARC: recombinant thymus and activation regulated chemokine used as comparator (protein, UniProt Q92583 24-94, looked up) C-C motif chemokine 17: ARGTNVGRECCLEYFKGAIPLRKLKTWYQTSEDCSRDAIVFVTVQGRAICSDPNNKRVKNAVKYLQSLERS | No chemotactic response | No chemotactic response |
